In PMC6528793 (Structure (London, England : 1993), 2017):

B1: AnkB C-terminal ankyrin domain (residues 54-168) (domain or fragment)
chain: HIKRELWGNLMVAARSNNLEEVKKILKKGIDPTQTNSYHLNRTPLLAAIEGKAYQTANYLWRKYTFDPNFKDNYGDSPISLLKKQLANPAFKDKEKKQIRALIRGMQEEKIAQSK

Key:
[1] = target: the molecule itself; experiment: crystal structure
[2] = target: B1; experiment: NMR titration

Binder	binding result [1]	Kd [2] [mM]
B1	binds	
QEEKI [QEEKI pentapeptide derived from the AnkB C-terminus]		> 8
